Assay results taken from the RNAGym collection of RNA variant scans (doi:10.1093/nar/gkz1192).

B1: CPEB3 Ribozyme (parent)
chain: UAACAGGGGGCCACAGCAGAAGCGUUCACGUCGCAGCCCCUGUCAGAUUCUGGUGAAUCUGCGAAUUCUGCUGUAUAUCUC

Variants of: B1
Assay: self-cleavage, relative activity (ratio to wild type); higher = more cleavage; in vitro, sequencing
Summary of the method: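 Relative activity was defined as the cleaved/total read fraction for a variant divided by the same fraction for the unmutated ribozyme. CPEB3 self-cleaving ribozyme libraries were made by rounds of error-prone PCR, barcoded, and transcribed in vitro with T7 RNA polymerase for 5 hours at 37°C, and cleavage ran through transcription plus a 15 min DNase I step before EDTA. Illumina sequencing of template-switched reverse transcripts gave the reads, and DNA sequencing mapped the barcodes. Averages come from three batches, using variants with at least 5 reads.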

Variant | self-cleavage
C23A G63A | 0.09
G22A U69G | 0.06
G22A U69A | 0.24
G22U G61C | 0.14
C23G U25C | 0.28
G22A U25A | 0.18
G22C U41A | 0.29
G22C U41C | 0.1
C23A U76C | 0.21
G22A U58C | 0.27
C23G U31C | 0.41
G22A U76C | 0.25
C23A G73A | 0.23
C23G A28U | 0.23
C23G A28G | 0.17
C23U A77G | 0.34
C23U A77U | 0.23
G22U A45G | 0.22
C23U U43G | 0.11
C23U U43A | 0.34
C23U U43C | 0.3
G22U U67C | 0.06
G22A G53A | 0.6
C23A C79A | 0.26

Variant | self-cleavage
C23U U49G | 0.41
C23U U49C | 0.28
C23A U49A | 0.25
C23A U31C | 0.23
G22U C71U | 0.08
G22U A56G | 0.2
C23U G70A | 0.17
C23U A35G | 0.95
C23U A35U | 0.16
G22A U74C | 0.5
C23A A28U | 0.14
C23A A28G | 0.18
C23G U74A | 0.28
C23G U74C | 0.41
G24A C32A | 0.29
C23U G30A | 0.12
C23G U43C | 0.25
C23A A57G | 0.26
G22A U48C | 0.19
G22A U48A | 0.07
G22A U48G | 0.32
C23A U54C | 0.18
G24A A57C | 0.15
G24A A57G | 0.15

Variant | self-cleavage
G22C U74G | 0.19
G24A A47G | 0.27
G24A A47U | 0.21
G22A U67C | 0.09
G22A U67A | 0.32
G22C A65G | 0.32
C23U U69A | 0.1
C23U U69C | 0.19
C23U C38U | 0.13
C23U C38A | 0.16
C23A C40G | 0.23
C23A U78C | 0.12
C23A U78A | 0.21
C23A U78G | 0.08
C23G U60C | 0.07
C23G U60A | 0.19
C23G U41C | 0.21
C23G U41A | 0.1
G22A G52U | 0.38
C23G G63U | 0.32
G22C U31A | 0.12
C23G A77G | 0.67
C23G A77U | 0.36
C23G A77C | 0.27

Variant | self-cleavage
G22C U69C | 0.15
G22U U72C | 0.3
G22U U72A | 0.15
G24A C40U | 0.1
C23A U72C | 0.41
C23A U72A | 0.08
G22A U26A | 0.38
G22A U26C | 0.19
G24A C68A | 0.07
G22A U31A | 0.34
G24A U26C | 0.3
G24A U26A | 0.16
C23A G36U | 0.25
C23G A64G | 0.08
C23G A64U | 0.26
G22C G53C | 0.07
G24A C37A | 0.17
G22C A64U | 0.16
G22C A64G | 0.24
G22C U25C | 0.45
C23U A57G | 0.31
C23U A57U | 0.19
G22U U43A | 0.34
G22U U43C | 0.3

Variant | self-cleavage
C23U U80A | 0.28
C23U U80G | 0.26
C23U A65G | 0.43
G24A A64G | 0.36
G24A A64U | 0.28
C23A A56G | 0.2
C23G U51G | 0.5
C23G U51A | 0.16
C23U G24A | 0.22
C23U A45C | 0.45
C23U A45G | 0.25
C23U A45U | 0.27
G22U U80C | 0.24
C23A U74A | 0.23
C23A U58A | 0.18
C23A U58C | 0.56
G22U A64G | 0.36
C23U U78C | 0.27
G24A G61A | 0.19
G24A G61C | 0.09
G24A A75G | 0.32
G24A A75U | 0.25
G22U U41A | 0.17
G22U U41C | 0.27

Variant | self-cleavage
C23A U80G | 0.51
C23A U80A | 0.23
C23A U80C | 0.12
G24A C62U | 0.18
C23U C34U | 0.36
C23G U80C | 0.13
C23G U80A | 0.47
G22C U80G | 0.27
C23U U31C | 0.22
C23U U31A | 0.23
C23U U76C | 0.4
C23U U76A | 0.22
C23A U43C | 0.23
C23A U43A | 0.28
C23A U69C | 0.12
C23U U51A | 0.2
C23U U51C | 0.07
G22C C37G | 0.09
C23U U25A | 0.14
C23U U25C | 0.19
C23U C32U | 0.14
C23U C37U | 0.2
G22C A35G | 0.32
G22C A35U | 0.12

Variant | self-cleavage
G22A U54C | 0.2
C23U G46A | 0.06
G22C G52C | 0.2
G24A C81A | 0.16
C23U U26A | 0.24
C23U U26C | 0.2
G22A U80C | 0.5
C23G U26A | 0.1
C23G U26C | 0.25
G22A U60C | 0.28
G22A U60A | 0.08
G22U U31C | 0.11
G22U U31A | 0.32
G24A A28G | 0.25
G24A A28U | 0.14
C23G A35U | 0.19
G22C A57G | 0.32
C23A A65G | 0.28
G24A G55A | 0.1
C23U A28C | 0.43
C23U A28U | 0.23
C23U A28G | 0.26
C23G U66C | 0.15
